In US11857601 (dated 2024):

Target: Human CTLA-4/CD152, His tag (Sino Biological, Cat: 11159-H08H) (human, UniProt P16410 36-162)
Assay: BLI

Sequence of Human CTLA-4/CD152, His tag (Sino Biological, Cat: 11159-H08H) (P16410 36-162): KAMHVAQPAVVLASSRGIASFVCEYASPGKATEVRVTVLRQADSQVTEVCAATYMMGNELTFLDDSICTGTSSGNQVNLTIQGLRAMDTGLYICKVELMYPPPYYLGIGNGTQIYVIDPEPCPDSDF

Kd: 3.2 nM
B1: GI101C1 (hCD80-Fc) (Fc fusion)
chain: VIHVTKEVKEVATLSCGHNVSVEELAQTRIYWQKEKKMVLTMMSGDMNIWPEYKNRTIFDITNNLSIVILALRPSDEGTYECVVLKYEKDAFKREHLAEVTLSVKADFPTPSISDFEIPTSNIRRIICSTSGGFPEPHLSWLENGEELNAINTTVSQDPETELYAVSSKLDFNMTTNHSFMCLIKYGHLRVNQTFNWNTTKQEHFPDNGSGGGGSGGGGSGGGGSAESKYGPPCPPCPAPEAAGGPSVFLFPPKPKDQLMISRTPEVTCVVVDVSQEDPEVQFNWYVDGVEVHNAKTKPREEQFNSTYRVVSVLTVLHQDWLNGKEYKCKVSNKGLPSSIEKTISKAKGQPREPQVYTLPPSQEEMTKNQVSLTCLVKGFYPSDIAVEWESNGQPENNYKTTPPVLDSDGSFFLYSRLTVDKSRWQEGNVFSCSVLHEALHNHYTQKSLSLSLG
